Results taken from the supplement of paper PMC9112550, “Optimization of the antimicrobial peptide Bac7 by deep mutational scanning” (BMC Biology, 2022).

System: Escherichia coli TOP10
Test: shrunken log2 fold change of peptide-encoding DNA abundance (4.5 h post-induction vs induction); higher = less antimicrobial activity (less host growth inhibition)
Settings: time post-induction: 4.5 h; library: site-saturation at positions 5, 18, 19, 20
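Note: peptides expressed intracellularly from a pBAD plasmid library in pooled LB shake-flask culture, induced with 0.3% L-arabinose, DNA abundance read by NGS, three biological replicates, DESeq2 with apeglm shrinkage.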

RRIRKRPPRLPRPRPRPTCRPRP
shrunken log2 fold change: 0.289

RRIRKRPPRLPRPRPRPTEQPRP
shrunken log2 fold change: 2.01

RRIRKRPPRLPRPRPRPTETPRP
shrunken log2 fold change: 0.114

RRIRKRPPRLPRPRPRPTFMPRP
shrunken log2 fold change: 0.189

RRIRKRPPRLPRPRPRPTGLPRP
shrunken log2 fold change: 0.223

RRIRKRPPRLPRPRPRPTGWPRP
shrunken log2 fold change: 1.44

RRIRKRPPRLPRPRPRPTKVPRP
shrunken log2 fold change: 1.21

RRIRKRPPRLPRPRPRPTMMPRP
shrunken log2 fold change: 0.316

RRIRKRPPRLPRPRPRPTNSPRP
shrunken log2 fold change: -0.241

RRIRKRPPRLPRPRPRPTPAPRP
shrunken log2 fold change: 1.41

RRIRKRPPRLPRPRPRPTPQPRP
shrunken log2 fold change: 0.896

RRIRKRPPRLPRPRPRPTPTPRP
shrunken log2 fold change: 0.831

RRIRKRPPRLPRPRPRPTQFPRP
shrunken log2 fold change: 1.1

RRIRKRPPRLPRPRPRPTQKPRP
shrunken log2 fold change: 0.0634

RRIRKRPPRLPRPRPRPTQLPRP
shrunken log2 fold change: 0.65

RRIRKRPPRLPRPRPRPTRWPRP
shrunken log2 fold change: 0.413

RRIRKRPPRLPRPRPRPTTGPRP
shrunken log2 fold change: 0.733

RRIRKRPPRLPRPRPRPTTHPRP
shrunken log2 fold change: 0.495

RRIRKRPPRLPRPRPRPTTKPRP
shrunken log2 fold change: -0.0244

RRIRKRPPRLPRPRPRPTTSPRP
shrunken log2 fold change: 0.321

RRIRKRPPRLPRPRPRPTWKPRP
shrunken log2 fold change: 0.107

RRIRKRPPRLPRPRPRPTYIPRP
shrunken log2 fold change: -0.154

RRIRKRPPRLPRPRPRPVAKPRP
shrunken log2 fold change: 3.34

RRIRKRPPRLPRPRPRPVESPRP
shrunken log2 fold change: 0.0629

RRIRKRPPRLPRPRPRPVHSPRP
shrunken log2 fold change: 0.034

RRIRKRPPRLPRPRPRPVKAPRP
shrunken log2 fold change: -0.0242

RRIRKRPPRLPRPRPRPVKIPRP
shrunken log2 fold change: 0.158

RRIRKRPPRLPRPRPRPVNEPRP
shrunken log2 fold change: -0.00608

RRIRKRPPRLPRPRPRPVNYPRP
shrunken log2 fold change: -0.0716

RRIRKRPPRLPRPRPRPVQCPRP
shrunken log2 fold change: 0.0223

RRIRKRPPRLPRPRPRPVQFPRP
shrunken log2 fold change: -0.0421

RRIRKRPPRLPRPRPRPVQYPRP
shrunken log2 fold change: 0.071

RRIRKRPPRLPRPRPRPVSAPRP
shrunken log2 fold change: 0.887

RRIRKRPPRLPRPRPRPVTWPRP
shrunken log2 fold change: 0.0106

RRIRKRPPRLPRPRPRPVVFPRP
shrunken log2 fold change: -0.0936

RRIRKRPPRLPRPRPRPVVVPRP
shrunken log2 fold change: 0.212

RRIRKRPPRLPRPRPRPVWPPRP
shrunken log2 fold change: 0.699

RRIRKRPPRLPRPRPRPVWQPRP
shrunken log2 fold change: 0.184

RRIRKRPPRLPRPRPRPVYHPRP
shrunken log2 fold change: 0.0002

RRIRKRPPRLPRPRPRPVYMPRP
shrunken log2 fold change: -0.082

RRIRKRPPRLPRPRPRPVYPPRP
shrunken log2 fold change: 0.293

RRIRKRPPRLPRPRPRPWAEPRP
shrunken log2 fold change: 0.0785

RRIRKRPPRLPRPRPRPWAGPRP
shrunken log2 fold change: 0.115

RRIRKRPPRLPRPRPRPWAVPRP
shrunken log2 fold change: 0.192

RRIRKRPPRLPRPRPRPWDCPRP
shrunken log2 fold change: 0.121

RRIRKRPPRLPRPRPRPWDNPRP
shrunken log2 fold change: 0.0448

RRIRKRPPRLPRPRPRPWEFPRP
shrunken log2 fold change: 0.504

RRIRKRPPRLPRPRPRPWGPPRP
shrunken log2 fold change: -0.125

RRIRKRPPRLPRPRPRPWHFPRP
shrunken log2 fold change: 0.169

RRIRKRPPRLPRPRPRPWIRPRP
shrunken log2 fold change: -0.336

RRIRKRPPRLPRPRPRPWKNPRP
shrunken log2 fold change: -0.00973

RRIRKRPPRLPRPRPRPWKPPRP
shrunken log2 fold change: -0.243

RRIRKRPPRLPRPRPRPWMGPRP
shrunken log2 fold change: -0.0352

RRIRKRPPRLPRPRPRPWMHPRP
shrunken log2 fold change: 0.00994

RRIRKRPPRLPRPRPRPWNHPRP
shrunken log2 fold change: -0.172

RRIRKRPPRLPRPRPRPWNRPRP
shrunken log2 fold change: -0.078

RRIRKRPPRLPRPRPRPWPHPRP
shrunken log2 fold change: 0.298

RRIRKRPPRLPRPRPRPWRAPRP
shrunken log2 fold change: 0.5

RRIRKRPPRLPRPRPRPWSQPRP
shrunken log2 fold change: -0.0225

RRIRKRPPRLPRPRPRPWTGPRP
shrunken log2 fold change: -0.0587

RRIRKRPPRLPRPRPRPWVRPRP
shrunken log2 fold change: -0.0489

RRIRKRPPRLPRPRPRPWWQPRP
shrunken log2 fold change: 0.0795

RRIRKRPPRLPRPRPRPWYNPRP
shrunken log2 fold change: -0.00192

RRIRKRPPRLPRPRPRPYCFPRP
shrunken log2 fold change: -0.258

RRIRKRPPRLPRPRPRPYDGPRP
shrunken log2 fold change: -0.0976

RRIRKRPPRLPRPRPRPYFSPRP
shrunken log2 fold change: -0.178

RRIRKRPPRLPRPRPRPYHGPRP
shrunken log2 fold change: -0.000893

RRIRKRPPRLPRPRPRPYHLPRP
shrunken log2 fold change: -0.0564

RRIRKRPPRLPRPRPRPYIFPRP
shrunken log2 fold change: -0.129

RRIRKRPPRLPRPRPRPYKDPRP
shrunken log2 fold change: -0.213

RRIRKRPPRLPRPRPRPYKEPRP
shrunken log2 fold change: -0.417

RRIRKRPPRLPRPRPRPYKMPRP
shrunken log2 fold change: -0.47

RRIRKRPPRLPRPRPRPYKSPRP
shrunken log2 fold change: -0.243

RRIRKRPPRLPRPRPRPYLMPRP
shrunken log2 fold change: -0.0192

RRIRKRPPRLPRPRPRPYLVPRP
shrunken log2 fold change: -0.634
